In patent US20090075394A1:

Molecular target: Aeropyrum pernix KvAP voltage-dependent potassium channel (Aeropyrum pernix) (UniProt Q9YDF8)
Test: inhibition of KvAP channel currents by CTX, channels in planar lipid bilayers

Sequence of Aeropyrum pernix KvAP voltage-dependent potassium channel (Aeropyrum pernix) (Q9YDF8 14-295): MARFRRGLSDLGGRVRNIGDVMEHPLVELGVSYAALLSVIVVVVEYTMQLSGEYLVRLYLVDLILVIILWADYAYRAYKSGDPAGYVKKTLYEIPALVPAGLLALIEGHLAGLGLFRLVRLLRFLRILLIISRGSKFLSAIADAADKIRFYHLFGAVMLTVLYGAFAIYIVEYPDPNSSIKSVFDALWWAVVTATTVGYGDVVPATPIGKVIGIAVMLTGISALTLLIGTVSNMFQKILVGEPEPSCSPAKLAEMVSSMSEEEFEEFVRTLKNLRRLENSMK

charybdotoxin (from UniProt P13487 23-59) (peptide)
Kd: 400 µM
